Experimental data taken from article PMC8163871, “Structures of the human LONP1 protease reveal regulatory steps involved in protease activation” (Nature Communications, 2021).
Residue numbers refer to the chain shown, from its start. Names and notes keep the numbering of the source.

Assays:
[1] = biological target: the molecule itself; experiment: cryo-EM structure; wild-type LONP1 2.5 mg/ml in 50 mM Tris pH 8, 75 mM KCl, 10 mM MgCl2, 1 mM TCEP, 1 mM ATPγS; substrate-free (~3.4 Å) and substrate-bound (~3.2 Å) conformations from one sample; LONP1 with itself
[2] = biological target: the molecule itself; experiment: cryo-EM structure; LONP1 2.5 mg/ml in 50 mM Tris pH 8, 75 mM KCl, 10 mM MgCl2, 1 mM TCEP, 1 mM ATPγS with 10-fold molar excess bortezomib; ~3.2 Å; LONP1 with itself
[3] = biological target: the molecule itself; experiment: cryo-EM structure; Walker B (E591A) LONP1 2.5 mg/ml in 50 mM Tris pH 8, 75 mM KCl, 10 mM MgCl2, 1 mM TCEP, 1 mM ATP; ~4.8 Å; LONP1 with itself

B1: human LONP1 (mature, lacking its N-terminal mitochondrial targeting sequence), wild type (enzyme, UniProt P36776 115-959, looked up)
chain: MTIPDVFPHLPLIAITRNPVFPRFIKIIEVKNKKLVELLRRKVRLAQPYVGVFLKRDDSNESDVVESLDEIYHTGTFAQIHEMQDLGDKLRMIVMGHRRVHISRQLEVEPEEPEAENKHKPRRKSKRGKKEAEDELSARHPAELAMEPTPELPAEVLMVEVENVVHEDFQVTEEVKALTAEIVKTIRDIIALNPLYRESVLQMMQAGQRVVDNPIYLSDMGAALTGAESHELQDVLEETNIPKRLYKALSLLKKEFELSKLQQRLGREVEEKIKQTHRKYLLQEQLKIIKKELGLEKDDKDAIEEKFRERLKELVVPKHVMDVVDEELSKLGLLDNHSSEFNVTRNYLDWLTSIPWGKYSNENLDLARAQAVLEEDHYGMEDVKKRILEFIAVSQLRGSTQGKILCFYGPPGVGKTSIARSIARALNREYFRFSVGGMTDVAEIKGHRRTYVGAMPGKIIQCLKKTKTENPLILIDEVDKIGRGYQGDPSSALLELLDPEQNANFLDHYLDVPVDLSKVLFICTANVTDTIPEPLRDRMEMINVSGYVAQEKLAIAERYLVPQARALCGLDESKAKLSSDVLTLLIKQYCRESGVRNLQKQVEKVLRKSAYKIVSGEAESVEVTPENLQDFVGKPVFTVERMYDVTPPGVVMGLAWTAMGGSTLFVETSLRRPQDKDAKGDKDGSLEVTGQLGEVMKESARIAYTFARAFLMQHAPANDYLVTSHIHLHVPEGATPKDGPSAGCTIVTALLSLAMGRPVRQNLAMTGEVSLTGKILPVGGIKEKTIAAKRAGVTCIVLPAENKKDFYDLAAFITEGLEVHFVEHYREIFDIAFPDEQAEALAVER
notes: human LONP1, mature mitochondrial-matrix form with methionine 115 as its first residue; residues ~420-947 resolved in the cryo-EM maps; pET20b-His6-LONP1; no removal of the His6 tag is described; Incubated with ATPγS for cryo-EM; also called His6-LONP1; WT LONP1; source: E. coli Rosetta 2(DE3)pLysS, purified (TALON cobalt resin, Superose 6 size exclusion)
stoichiometry N [1]: 6

B2: LONP1^Bz: human LONP1 with bortezomib covalently attached to the catalytic serine (enzyme, UniProt P36776 115-959, looked up)
chain: B1 chain
modifications: bortezomib covalently attached to S855
notes: human LONP1, mature form with methionine 115 as its first residue; with ATPγS
stoichiometry N [2]: 6

B3: Walker B LONP1 mutant (E591A) (enzyme, human, UniProt P36776 115-959, looked up)
chain: B1 chain with E477A
notes: human LONP1, mature form with methionine 115 as its first residue, with the Walker B mutation E591 to A591; Made by QuikChange from pET20b-His6-LONP1, expressed and purified as the wild type; Structure determined with ATP; also called WalkerB mutant LONP1; source: E. coli Rosetta 2(DE3)pLysS, purified (TALON cobalt resin, Superose 6 size exclusion)
binding result [3]: binds
